Data from patent US20250109215A1 (Xencor, published 2025).
Blank lines part the entries; values can stand above or below the binder they belong to.

Experiments:
[1] = target: T1, cyno CD3 (cynomolgus monkey, UniProt Q95LI5 22-117; Q95LI8 22-105); assay: method not stated in the legend of FIG. 143
T1 construct: The legend says only cyno CD3; also called cynomolgus monkey CD3

[2] = target: T2, human CD3 (human, UniProt P07766 23-126; P04234 22-105); assay: method not stated in the legend of FIG. 142
T2 construct: The legend says only human CD3
T2 sequence (P07766 23-126, chain 1 of 2): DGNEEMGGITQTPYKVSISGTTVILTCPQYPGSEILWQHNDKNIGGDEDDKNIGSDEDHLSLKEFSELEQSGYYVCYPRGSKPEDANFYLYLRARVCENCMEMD
T2 sequence (P04234 22-105, chain 2 of 2): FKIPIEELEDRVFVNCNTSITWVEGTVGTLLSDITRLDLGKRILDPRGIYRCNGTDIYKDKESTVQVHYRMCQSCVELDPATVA

[3] = target: T3, human CD123 (human, UniProt P26951 19-305, limits assumed); assay: SPR sensorgrams on CD123 (highest trace about 160 RU); the value is printed over the panel without a name and equals the rounded KD of Figure 127
T3 construct: Construct on the chip is not described; also called CD123 chip
T3 sequence (looked up): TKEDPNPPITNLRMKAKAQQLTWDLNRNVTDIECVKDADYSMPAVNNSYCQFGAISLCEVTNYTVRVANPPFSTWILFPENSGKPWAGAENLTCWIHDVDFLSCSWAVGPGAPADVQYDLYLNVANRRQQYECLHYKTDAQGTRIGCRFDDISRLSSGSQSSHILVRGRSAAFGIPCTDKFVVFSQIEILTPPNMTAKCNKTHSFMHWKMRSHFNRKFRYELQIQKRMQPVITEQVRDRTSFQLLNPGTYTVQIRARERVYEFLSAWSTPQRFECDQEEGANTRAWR

[4] = target: T3, human CD123; assay: Biacore, Fab-His on CD123 (Example 3; the sheet names no assay)
[5] = target: T3, human CD123; assay: SPR sensorgrams of the Fab on CD123 (highest trace about 153 RU); the value is printed over the panel without a name and equals the rounded KD of Figure 127
[6] = target: T3, human CD123; assay: off-rate screen of Fab-His on a Biacore CD123 chip (Example 3), relative to 7G3 H1L1 Fab

T1 sequence (Q95LI5 22-117, form in doubt, chain 1 of 2): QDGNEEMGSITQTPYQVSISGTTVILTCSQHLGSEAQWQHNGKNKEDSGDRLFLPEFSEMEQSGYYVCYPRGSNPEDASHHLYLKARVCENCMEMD
T1 sequence (Q95LI8 22-105, form in doubt, chain 2 of 2): as the sequence (P04234 22-105, chain 2 of 2) above, with I5V, N15K, I20V, S32T, D33N, I34N, T64A, S74N, V83L counted along it

Kd [1]: 5.7 nM | Kd [2]: 8.1 nM
B1: XENP14045 (anti-CD123 x anti-CD3) bispecific (bispecific antibody)
heavy: QVQLQQSGAEVKKPGASVKVSCKASGYTFTDYYMKWVKQSHGKSLEWMGDIIPSNGATFYNQKFKGKATLTVDRSTSTAYMELSSLRSEDTAVYYCARSHLLRASWFAYWGQGTLVTVSSASTKGPSVFPLAPSSKSTSGGTAALGCLVKDYFPEPVTVSWNSGALTSGVHTFPAVLQSSGLYSLSSVVTVPSSSLGTQTYICNVNHKPSDTKVDKKVEPKSCDKTHTCPPCPAPPVAGPSVFLFPPKPKDTLMISRTPEVTCVVVDVKHEDPEVKFNWYVDGVEVHNAKTKPREEEYNSTYRVVSVLTVLHQDWLNGKEYKCKVSNKALPAPIEKTISKAKGQPREPQVYTLPPSREEMTKNQVSLTCDVSGFYPSDIAVEWESDGQPENNYKTTPPVLDSDGSFFLYSKLTVDKSRWEQGDVFSCSVMHEALHNHYTQKSLSLSPGK
scFv-Fc: not shown
light: not shown
notes: XENP13967 has the same CD123 side with a different CD3 scFv

Kd [3]: 0.1 nM | Ka [4]: 1.05e+10 M⁻¹ | Kd [4]: 0.0954 nM | koff [4]: 6.25e-05 s⁻¹ | kon [4]: 655000 M⁻¹ s⁻¹
B2: 13967 7G3_H1.109_L1.57_Fab_His (Fab, V domains shown)
VH: QVQLQQSGAEVKKPGASVKVSCKASGYTFTDYYMKWVKQSHGKSLEWMGDIIPSNGATFYNQKFKGKATLTVDRSTSTAYMELSSLRSEDTAVYYCARSHLLRASWFAYWGQGTLVTVSS
VL: DFVMTQSPDSLAVSLGERATINCKSSQSLLNTGNQKNYLTWYQQKPGQPPKLLIYWASTRESGVPDRFTGSGSGTDFTLTISSLQAEDVAVYYCQNDYSYPYTFGGGTKLEIKR
notes: also called XENP13967

Kd [5]: 0.2 nM | Fold improvement in off-rate vs. H1L1 [6]: 7.21 fold | Ka [4]: 6.25e+09 M⁻¹ | Kd [4]: 0.16 nM | koff [4]: 0.000108 s⁻¹ | kon [4]: 674000 M⁻¹ s⁻¹
B3: 13760 7G3_H0L0_Fab_His (Fab, V domains shown)
VH: EVQLQQSGPELVKPGASVKMSCKASGYTFTDYYMKWVKQSHGKSLEWIGDIIPSNGATFYNQKFKGKATLTVDRSSSTAYMHLNSLTSEDSAVYYCTRSHLLRASWFAYWGQGTLVTVSA
VL: DFVMTQSPSSLTVTAGEKVTMSCKSSQSLLNSGNQKNYLTWYLQKPGQPPKLLIYWASTRESGVPDRFTGSGSGTDFTLTISSVQAEDLAVYYCQNDYSYPYTFGGGTKLEIKR
notes: Fab of the murine 7G3 variable regions; also called XENP13760
